Molecular target: human LAG-3 expressed on cells (human) (UniProt P18627)
Assay: cell-based or functional assay

Sequence of human LAG-3 expressed on cells (human) (P18627 23-525 limits assumed): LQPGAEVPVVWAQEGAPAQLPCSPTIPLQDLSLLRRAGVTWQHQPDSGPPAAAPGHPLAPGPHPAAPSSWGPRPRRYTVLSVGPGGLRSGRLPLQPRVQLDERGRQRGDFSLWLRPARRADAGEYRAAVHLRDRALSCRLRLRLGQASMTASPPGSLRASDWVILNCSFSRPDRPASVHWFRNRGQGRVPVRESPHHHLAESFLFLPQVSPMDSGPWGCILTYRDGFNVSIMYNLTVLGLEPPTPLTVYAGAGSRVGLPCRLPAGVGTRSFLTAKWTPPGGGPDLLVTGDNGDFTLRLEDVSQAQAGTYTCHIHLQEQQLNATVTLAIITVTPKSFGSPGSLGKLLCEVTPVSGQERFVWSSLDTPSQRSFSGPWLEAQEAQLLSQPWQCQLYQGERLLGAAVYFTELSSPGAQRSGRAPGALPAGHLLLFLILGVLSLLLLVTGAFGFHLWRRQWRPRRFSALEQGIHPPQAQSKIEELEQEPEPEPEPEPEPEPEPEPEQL

Row | EC50 (M), NFAT-Luciferase Reporter Gene assay (LAG-3:MHCII) [M] | Substance
1 | 4e-09 | Human anti-LAG3 antibody (Relatlimab analogue)
2 | 3.2e-08 | Mouse anti-LAG3 antibody clone 17B4

From patent publication US20210015937A1
